Test results as given in paper PMC2720063 (Biochemistry, 2009).

Molecular target: T1, Ror2(518–525) peptide (human)
T1 chain: REEFRHEA
Experiment: crystal structure

binding result: binds
B1: PFA1 Fab (Fab fragment of the monoclonal anti-Aβ antibody PFA1, Protofibril antibody 1) (Fab, V domains shown)
VH: QVTLKESGPGILKPSQTLSLTCSFSGFSLSTSGMGVGWIRQPSGKGLEWLAHIWWDDDRSYNPSLKSQLTISKDAARNQVFLRITSVDTADTATYYCVRRAHTTVLGDWFAYWGQGTLVTVSA
VL: DVLMTQTPLSLPVSLGDQASISCRSSQSIVHSNGNTYLEWYLQKPGQSPKLLIYKVSNRFSGVPDRFSGSGSGTDFTLKISRVEAEDLGVYYCFQGSHVPLTFGAGTKLELK
